Biological target: C-terminally labeled STIM1(del302-448) (STIM1(del302-448)-AcGFP / STIM1(del302-448)-mApple) (human) (UniProt Q13586)
Test: cross-linking; chemical crosslinking with dithiobis(succinymidyl propionate); constructs separately expressed; unstimulated state (Supplemental Figure S2)

“C-terminally labeled STIM1(del302-448) (STIM1(del302-448)-AcGFP / STIM1(del302-448)-mApple) (from UniProt Q13586 23-685) (natural protein)” gave a stoichiometry N of 2.

Reference: publication PMC4883682
